Assays:
[1] = probe reaction for UGT1A1; cited from earlier work
[2] = Chemical inhibition of GA glucuronidation; details: GA 2 µM, M2 formation
UGT1A8 = details: mycophenolic acid as substrate of UGT1A8; cited from earlier work
[3] = substrate: CC1(C)C=Cc2c(ccc3c2OC[C@@H](c2ccc(O)cc2O)C3)O1; assay: GA glucuronidation kinetics by recombinant UGT1A10; format: in vitro ADME, human; details: other: UGT1A10, M2 formation, substrate inhibition model; pH 7.4
[4] = substrate: CC1(C)C=Cc2c(ccc3c2OC[C@@H](c2ccc(O)cc2O)C3)O1; assay: GA glucuronidation kinetics by recombinant UGT1A1; format: in vitro ADME, human; details: Michaelis–Menten, pH 7.4
[5] = substrate: CC1(C)C=Cc2c(ccc3c2OC[C@@H](c2ccc(O)cc2O)C3)O1; assay: GA glucuronidation by recombinant UGT1A8; format: in vitro ADME, human; details: other: UGT1A8, M2 formation, substrate inhibition model; pH 7.4
[6] = substrate: CC1(C)C=Cc2c(ccc3c2OC[C@@H](c2ccc(O)cc2O)C3)O1; assay: GA glucuronidation kinetics by recombinant UGT1A3; format: in vitro ADME, human; details: other: UGT1A3, M2 formation, Michaelis–Menten; pH 7.4

Q: Which “rate of 3-O-glucuronidation by DLM relative to HLM” value [1] does the source give for `C#C[C@]1(O)CC[C@H]2[C@@H]3CCc4cc(O)ccc4[C@H]3CC[C@@]21C` [ethylestradiol] here?
A: The value was 10 fold.

Q: Which “remaining GA glucuronidation activity in HIM” value ([2]; inhibitor 1 mM (Fig. 6)) does the source give for `OC(Cn1cncn1)(Cn1cncn1)c1ccc(F)cc1F` [fluconazole] here?
A: Its value is “above 85 % of the control”.

Q: For `C=CCc1ccc(O)c(-c2cc(CC=C)ccc2O)c1` [magnolol], which “remaining GA glucuronidation activity in HIM” value ([2]; inhibitor 1 µM) is on record?
A: The value was “above 85 % of the control”.

Q: With `COc1c(C)c2c(c(O)c1C/C=C(\C)CCC(=O)O)C(=O)OC2` [mycophenolic acid] as the molecule, how does the Km (UGT1A8) read?
A: The Km was 1.39 µM.

Q: And the “remaining GA glucuronidation activity in HIM” value ([2]; inhibitor 10 µM)?
A: The value was 28 % of the control.

Q: With `Cc1cn(-c2cc(NC(=O)c3ccc(C)c(Nc4nccc(-c5cccnc5)n4)c3)cc(C(F)(F)F)c2)cn1` [nilotinib] as the molecule, how does the “remaining GA glucuronidation activity in HIM” value ([2]; inhibitor 1 µM) read?
A: Its value is “above 85 % of the control”.

B1: recombinant human UGT1A10 (Homo sapiens) (protein)
chain: GKLLVVPMDGSHWFTMQSVVEKLILRGHEVVVVMPEVSWQLERSLNCTVKTYSTSYTLEDQNREFMVFAHAQWKAQAQSIFSLLMSSSSGFLDLFFSHCRSLFNDRKLVEYLKESSFDAVFLDPFDTCGLIVAKYFSLPSVVFTRGIFCHHLEEGAQCPAPLSYVPNDLLGFSDAMTFKERVWNHIVHLEDHLFCQYLFRNALEIASEILQTPVTAYDLYSHTSIWLLRTDFVLDYPKPVMPNMIFIGGINCHQGKPLPMEFEAYINASGEHGIVVFSLGSMVSEIPEKKAMAIADALGKIPQTVLWRYTGTRPSNLANNTILVKWLPQNDLLGHPMTRAFITHAGSHGVYESICNGVPMVMMPLFGDQMDNAKRMETKGAGVTLNVLEMTSEDLENALKAVINDKSYKENIMRLSSLHKDRPVEPLDLAVFWVEFVMRHKGAPHLRPAAHDLTWYQYHSLDVIGFLLAVVLTVAFITFKCCAYGYRKCLGKKGRVKKAHKSKTH
Q: Which results are given for B1?
A: Km [3]: 28 ± 8 µM; Vmax [3]: 0.5 ± 0.1 nmol/min/mg

B2: recombinant human UGT1A1 (Homo sapiens) (protein)
chain: HAGKILLIPVDGSHWLSMLGAIQQLQQRGHEIVVLAPDASLYIRDGAFYTLKTYPVPFQREDVKESFVSLGHNVFENDSFLQRVIKTYKKIKKDSAMLLSGCSHLLHNKELMASLAESSFDVMLTDPFLPCSPIVAQYLSLPTVFFLHALPCSLEFEATQCPNPFSYVPRPLSSHSDHMTFLQRVKNMLIAFSQNFLCDVVYSPYATLASEFLQREVTVQDLLSSASVWLFRSDFVKDYPRPIMPNMVFVGGINCLHQNPLSQEFEAYINASGEHGIVVFSLGSMVSEIPEKKAMAIADALGKIPQTVLWRYTGTRPSNLANNTILVKWLPQNDLLGHPMTRAFITHAGSHGVYESICNGVPMVMMPLFGDQMDNAKRMETKGAGVTLNVLEMTSEDLENALKAVINDKSYKENIMRLSSLHKDRPVEPLDLAVFWVEFVMRHKGAPHLRPAAHDLTWYQYHSLDVIGFLLAVVLTVAFITFKCCAYGYRKCLGKKGRVKKAHKSKTH
Q: With B2 as the molecule, how does the Km ([4]; other: UGT1A1, M1 formation) read?
A: The Km was 7.6 ± 1.8 µM.

Q: What about the Vmax ([4]; other: UGT1A1, M1 formation) of the same molecule?
A: The Vmax was 0.17 ± 0.01 nmol/min/mg.

Q: And the Km ([4]; other: UGT1A1, M2 formation)?
A: Its Km is 24 ± 14 µM.

Q: What about the Vmax ([4]; other: UGT1A1, M2 formation) of the same molecule?
A: Its Vmax is 0.11 ± 0.03 nmol/min/mg.

B3: recombinant human UGT1A8 (Homo sapiens) (protein)
chain: GKLLVVPMDGSHWFTMQSVVEKLILRGHEVVVVMPEVSWQLGKSLNCTVKTYSTSYTLEDLDREFMDFADAQWKAQVRSLFSLFLSSSNGFFNLFFSHCRSLFNDRKLVEYLKESSFDAVFLDPFDACGLIVAKYFSLPSVVFARGIACHYLEEGAQCPAPLSYVPRILLGFSDAMTFKERVRNHIMHLEEHLFCQYFSKNALEIASEILQTPVTAYDLYSHTSIWLLRTDFVLDYPKPVMPNMIFIGGINCHQGKPLPMEFEAYINASGEHGIVVFSLGSMVSEIPEKKAMAIADALGKIPQTVLWRYTGTRPSNLANNTILVKWLPQNDLLGHPMTRAFITHAGSHGVYESICNGVPMVMMPLFGDQMDNAKRMETKGAGVTLNVLEMTSEDLENALKAVINDKSYKENIMRLSSLHKDRPVEPLDLAVFWVEFVMRHKGAPHLRPAAHDLTWYQYHSLDVIGFLLAVVLTVAFITFKCCAYGYRKCLGKKGRVKKAHKSKTH
Q: For B3, which Km [5] is on record?
A: Its Km is 64 ± 9 µM.

Q: And the Vmax [5]?
A: The Vmax was 11 ± 3 nmol/min/mg.

B4: recombinant human UGT1A3 (Homo sapiens) (protein)
chain: GKVLVVPIDGSHWLSMREVLRELHARGHQAVVLTPEVNMHIKEENFFTLTTYAISWTQDEFDRHVLGHTQLYFETEHFLKKFFRSMAMLNNMSLVYHRSCVELLHNEALIRHLNATSFDVVLTDPVNLCAAVLAKYLSIPTVFFLRNIPCDLDFKGTQCPNPSSYIPRLLTTNSDHMTFMQRVKNMLYPLALSYICHAFSAPYASLASELFQREVSVVDILSHASVWLFRGDFVMDYPRPIMPNMVFIGGINCANRKPLSQEFEAYINASGEHGIVVFSLGSMVSEIPEKKAMAIADALGKIPQTVLWRYTGTRPSNLANNTILVKWLPQNDLLGHPMTRAFITHAGSHGVYESICNGVPMVMMPLFGDQMDNAKRMETKGAGVTLNVLEMTSEDLENALKAVINDKSYKENIMRLSSLHKDRPVEPLDLAVFWVEFVMRHKGAPHLRPAAHDLTWYQYHSLDVIGFLLAVVLTVAFITFKCCAYGYRKCLGKKGRVKKAHKSKTH
Q: For B4, which Km [6] is on record?
A: The Km was 11 ± 4 µM.

Q: What about the Vmax [6] of the same molecule?
A: Its Vmax is 0.32 ± 0.06 nmol/min/mg.

— paper PMC6300978 (Chemico-biological interactions, 2015)
